Where only a bound is given, the exact number is not on record here.

In one assay the target is HLA-A*02:01 (human). Kind of assay: pMHC used for negative control stimulation.
As for YLLPAIVHI [DDX5-001], the binding result is listed as “binds”.

The target of the next assay is HLA-A*02 (human). Kind of assay: UV peptide-exchange ELISA, yield grade. (In general: ELISA stands for enzyme-linked immunosorbent assay.)
Take YAIGLVMRL [YAIGLVMRL (SEQ ID NO: 266)]: the peptide exchange yield lay in the range of 50 to 75%.

For SLAPATPEV [SLAPATPEV (SEQ ID NO: 250)], the peptide exchange yield fell in the range of 50 to 75%.

On to ALYEGYATV [ALYEGYATV (SEQ ID NO: 247)], for which the peptide exchange yield was 50 to 75%. SVLDSTAKV [SVLDSTAKV (SEQ ID NO: 151)] came in with a peptide exchange yield of 20 to 49%. Molecule KLQGKLPEL [KLQGKLPEL (SEQ ID NO: 254)] had a peptide exchange yield of 20 to 49%. The molecule GLYERPTAA [GLYERPTAA (SEQ ID NO: 238)] came in with a peptide exchange yield of 20 to 49%.

MLDKYSHYL [MLDKYSHYL (SEQ ID NO: 231)] came in with a peptide exchange yield of 50 to 75%. KIFPAALQLV [KIFPAALQLV (SEQ ID NO: 232)] returned a peptide exchange yield of 50 to 75%.

On to FMADDIFSV [FMADDIFSV (SEQ ID NO: 243)], for which the peptide exchange yield fell in the range of 50 to 75%. Still for that read-out and setting: the same measure for WLYGEDHQI [WLYGEDHQI (SEQ ID NO: 242)]: 20 to 49%; for SLGEEQFSV [SLGEEQFSV (SEQ ID NO: 256)]: 20 to 49%. For the molecule YLLEKNRVV [YLLEKNRVV (SEQ ID NO: 244)], the peptide exchange yield fell in the range of 20 to 49%.

Turning to MMVGDLLEV [MMVGDLLEV (SEQ ID NO: 152)], the peptide exchange yield lay in the range of 50 to 75%. In turn, RLLGTEFQV [RLLGTEFQV (SEQ ID NO: 154)] had a peptide exchange yield of 50 to 75%.

Molecule GLCERLVSL [GLCERLVSL (SEQ ID NO: 249)] displayed a peptide exchange yield of no less than 75%. On the same count and under the same terms, the same measure for YLDRFLAGV [YLDRFLAGV (SEQ ID NO: 248)]: no less than 75%. Still for that read-out and setting: the same measure for YMGEEKLIASV [YMGEEKLIASV (SEQ ID NO: 240)]: 50 to 75%; for SLLHFTENL [SLLHFTENL (SEQ ID NO: 255)]: 50 to 75%. TLTSLLAQA [TLTSLLAQA (SEQ ID NO: 157)]: the peptide exchange yield lay within 50 to 75%.

LLSERFINV [LLSERFINV (SEQ ID NO: 258)] returned a peptide exchange yield of no less than 75%. The molecule QLQDRVYAL [QLQDRVYAL (SEQ ID NO: 261)] returned a peptide exchange yield of 50 to 75%. ILLEKILSL [ILLEKILSL (SEQ ID NO: 260)] had a peptide exchange yield of 50 to 75%. In turn, ILLPRIIEA [ILLPRIIEA (SEQ ID NO: 259)] returned a peptide exchange yield of 50 to 75%. For VLLSEQGDVKL [VLLSEQGDVKL (SEQ ID NO: 263)], the peptide exchange yield was in the range of 20 to 49%. NTCPYVHNI [NTCPYVHNI (SEQ ID NO: 265)]: the peptide exchange yield was 50 to 75%.

As to FISERVEVV [FISERVEVV (SEQ ID NO: 153)], the peptide exchange yield was no less than 75%. KLQNIMMLL [KLQNIMMLL (SEQ ID NO: 230)] returned a peptide exchange yield of 20 to 49%. Still for that read-out and setting: the figure for SLLDLPLSL [SLLDLPLSL (SEQ ID NO: 245)] is no less than 75%; for KMNESTRSV [KMNESTRSV (SEQ ID NO: 239)] it is 20 to 49%. For KTIQQLETV [KTIQQLETV (SEQ ID NO: 241)], the peptide exchange yield is 20 to 49%. For KLFPQETLFL [KLFPQETLFL (SEQ ID NO: 264)], the peptide exchange yield is 50 to 75%. In turn, ALAPHLDDA [ALAPHLDDA (SEQ ID NO: 237)] gave a peptide exchange yield of 50 to 75%. On to ALSVLRLAL [ALSVLRLAL (SEQ ID NO: 251)], for which the peptide exchange yield was 50 to 75%. The molecule AILAHLNTV [AILAHLNTV (SEQ ID NO: 229)] yielded a peptide exchange yield of no less than 75%. The same measure, in the same setting: the same measure for TVSDVLNSV [TVSDVLNSV (SEQ ID NO: 246)]: 50 to 75%; for ALAELIDNSL [ALAELIDNSL (SEQ ID NO: 253)]: 50 to 75%. Same read-out and setting: the figure for KIIDFLSAL [KIIDFLSAL (SEQ ID NO: 235)] is 50 to 75%. Turning to LLNPVVEFV [LLNPVVEFV (SEQ ID NO: 155)], the peptide exchange yield was in the range of 50 to 75%. FMVDKAIYL [FMVDKAIYL (SEQ ID NO: 262)] came in with a peptide exchange yield of 50 to 75%.

Molecule STIAILNSV [STIAILNSV (SEQ ID NO: 236)] displayed a peptide exchange yield of 50 to 75%. Consider RLMEICESL [RLMEICESL (SEQ ID NO: 252)], for which the peptide exchange yield fell in the range of 50 to 75%.

For the molecule GLYTDPCGV [GLYTDPCGV (SEQ ID NO: 257)], the peptide exchange yield was no less than 75%. Still for that read-out and setting: the figure for ILGDLSHLL [ILGDLSHLL (SEQ ID NO: 156)] is 50 to 75%; for HLFDAFVSV [HLFDAFVSV (SEQ ID NO: 233)] it is 50 to 75%. Consider LLSPHNPAL [LLSPHNPAL (SEQ ID NO: 234)], for which the peptide exchange yield was in the range of 50 to 75%.

For the origin of these results see patent US20170165339A1 (IMMATICS BIOTECHNOLOGIES, published 2017).
